Reference: US20230360747A1
pKd: −log10 of the molar value.

Target: SARS-CoV-2 RBD (40592-VO8H, Sino Biological), Alexa Fluor 647 labelled (SARS-CoV-2) (UniProt P0DTC2)

**Q.** With “SARS-CoV-2 (2019-nCoV) spike antibody (40150-R007, Sino Biological)” as the substance, how does the pKd read?
**A.** Its pKd is 8.02.
